The values below come from patent US10287362.

Read-outs that look alike come from different tables or passages of the source.

The target of experiment [1] is T1, murine CD73 on 4T1 cells (mouse, UniProt Q61503).
T1 chain: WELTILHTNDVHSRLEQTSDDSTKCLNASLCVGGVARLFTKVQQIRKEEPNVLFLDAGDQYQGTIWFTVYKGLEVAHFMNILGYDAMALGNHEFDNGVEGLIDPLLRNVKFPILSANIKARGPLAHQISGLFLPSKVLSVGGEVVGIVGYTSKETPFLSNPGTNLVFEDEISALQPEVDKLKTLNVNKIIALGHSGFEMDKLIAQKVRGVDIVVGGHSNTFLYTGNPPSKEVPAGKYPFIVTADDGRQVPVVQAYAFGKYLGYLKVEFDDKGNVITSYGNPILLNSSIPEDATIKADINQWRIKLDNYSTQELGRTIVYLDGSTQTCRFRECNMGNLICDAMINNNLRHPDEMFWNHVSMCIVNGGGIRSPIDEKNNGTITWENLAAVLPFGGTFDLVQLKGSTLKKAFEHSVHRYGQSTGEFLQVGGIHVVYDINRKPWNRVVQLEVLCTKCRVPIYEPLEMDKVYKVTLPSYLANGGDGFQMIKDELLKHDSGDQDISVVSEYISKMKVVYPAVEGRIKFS
The experiment in a line: FACS. A general note: In flow cytometry, cells or beads pass a laser one at a time.

For experiment [2], the target named is T2, human CD73 ECD (human, UniProt P21589).
T2 chain: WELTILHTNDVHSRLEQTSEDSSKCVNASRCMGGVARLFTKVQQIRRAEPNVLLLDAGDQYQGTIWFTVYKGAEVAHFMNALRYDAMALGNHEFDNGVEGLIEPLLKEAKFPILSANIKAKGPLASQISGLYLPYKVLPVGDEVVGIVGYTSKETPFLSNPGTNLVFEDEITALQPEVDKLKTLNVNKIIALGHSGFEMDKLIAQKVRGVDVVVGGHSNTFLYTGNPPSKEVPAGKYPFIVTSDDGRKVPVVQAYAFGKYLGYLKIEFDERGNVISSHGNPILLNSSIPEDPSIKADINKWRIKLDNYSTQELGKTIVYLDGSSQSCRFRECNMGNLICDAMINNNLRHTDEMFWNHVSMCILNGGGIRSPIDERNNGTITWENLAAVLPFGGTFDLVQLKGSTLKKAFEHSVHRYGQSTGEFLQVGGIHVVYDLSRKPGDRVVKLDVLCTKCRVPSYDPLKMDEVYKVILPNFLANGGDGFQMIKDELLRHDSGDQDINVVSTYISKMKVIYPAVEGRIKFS
As to the kind of experiment: SPR, bivalent. In general terms: Surface plasmon resonance follows binding to a sensor surface in real time, without labels.

Experiment [3] has as its target T1, murine CD73 on 4T1 cells. As to the kind of experiment: FACS.
In experiment [4] the target is T3, murine CD73 ECD (mouse, UniProt Q61503).
T3 chain: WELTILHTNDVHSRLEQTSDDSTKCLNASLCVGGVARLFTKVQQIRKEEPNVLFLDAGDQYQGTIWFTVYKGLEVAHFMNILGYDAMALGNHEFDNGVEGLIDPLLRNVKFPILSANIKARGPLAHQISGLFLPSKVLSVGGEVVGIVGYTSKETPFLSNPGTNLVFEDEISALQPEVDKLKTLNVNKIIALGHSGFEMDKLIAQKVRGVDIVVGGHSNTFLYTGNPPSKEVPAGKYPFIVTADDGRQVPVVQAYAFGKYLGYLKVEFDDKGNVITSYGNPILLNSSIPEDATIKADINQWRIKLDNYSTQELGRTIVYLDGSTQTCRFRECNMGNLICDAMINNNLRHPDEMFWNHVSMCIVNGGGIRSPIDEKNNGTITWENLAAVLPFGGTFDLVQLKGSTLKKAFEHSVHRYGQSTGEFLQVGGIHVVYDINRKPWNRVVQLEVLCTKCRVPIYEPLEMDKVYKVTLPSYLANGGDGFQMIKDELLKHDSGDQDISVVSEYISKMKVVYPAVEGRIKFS
As to the kind of experiment: SPR.

For another experiment, the target named is T4, CD73 V144K+N185G (human, UniProt P21589).
T4 chain: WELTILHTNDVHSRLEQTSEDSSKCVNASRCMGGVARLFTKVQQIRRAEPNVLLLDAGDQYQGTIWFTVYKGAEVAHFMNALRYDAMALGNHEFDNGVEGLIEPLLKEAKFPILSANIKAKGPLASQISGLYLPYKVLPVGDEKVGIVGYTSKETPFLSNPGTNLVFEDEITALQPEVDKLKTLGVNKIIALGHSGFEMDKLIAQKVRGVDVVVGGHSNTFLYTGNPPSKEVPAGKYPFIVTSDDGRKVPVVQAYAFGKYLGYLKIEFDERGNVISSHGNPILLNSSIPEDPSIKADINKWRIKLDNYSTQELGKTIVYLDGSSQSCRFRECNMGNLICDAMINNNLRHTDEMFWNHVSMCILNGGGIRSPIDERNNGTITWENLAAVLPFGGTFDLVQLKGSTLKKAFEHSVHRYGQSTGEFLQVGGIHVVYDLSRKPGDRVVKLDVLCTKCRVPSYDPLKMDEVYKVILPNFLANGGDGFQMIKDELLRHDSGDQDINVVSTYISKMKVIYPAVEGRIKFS
As to the kind of experiment: SPR, bivalent.

For another experiment, the target named is T5, CD73 N185G (human, UniProt P21589).
T5 chain: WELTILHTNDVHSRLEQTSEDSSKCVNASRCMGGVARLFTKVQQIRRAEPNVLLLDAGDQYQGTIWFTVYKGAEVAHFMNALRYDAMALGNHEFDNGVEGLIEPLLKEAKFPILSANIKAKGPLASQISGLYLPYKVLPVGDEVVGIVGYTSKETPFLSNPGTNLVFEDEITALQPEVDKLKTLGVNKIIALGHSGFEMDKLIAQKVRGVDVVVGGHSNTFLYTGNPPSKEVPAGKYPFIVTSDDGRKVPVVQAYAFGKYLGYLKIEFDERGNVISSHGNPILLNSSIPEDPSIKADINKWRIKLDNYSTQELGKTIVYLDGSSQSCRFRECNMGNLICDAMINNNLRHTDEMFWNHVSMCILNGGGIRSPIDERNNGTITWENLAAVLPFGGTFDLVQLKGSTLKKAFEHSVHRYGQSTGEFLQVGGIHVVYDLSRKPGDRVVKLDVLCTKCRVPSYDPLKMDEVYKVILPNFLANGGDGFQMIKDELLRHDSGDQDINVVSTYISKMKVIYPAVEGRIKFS
The experiment in a line: SPR, bivalent.

The next experiment deals with T6, CD73 V144K (human, UniProt P21589).
T6 chain: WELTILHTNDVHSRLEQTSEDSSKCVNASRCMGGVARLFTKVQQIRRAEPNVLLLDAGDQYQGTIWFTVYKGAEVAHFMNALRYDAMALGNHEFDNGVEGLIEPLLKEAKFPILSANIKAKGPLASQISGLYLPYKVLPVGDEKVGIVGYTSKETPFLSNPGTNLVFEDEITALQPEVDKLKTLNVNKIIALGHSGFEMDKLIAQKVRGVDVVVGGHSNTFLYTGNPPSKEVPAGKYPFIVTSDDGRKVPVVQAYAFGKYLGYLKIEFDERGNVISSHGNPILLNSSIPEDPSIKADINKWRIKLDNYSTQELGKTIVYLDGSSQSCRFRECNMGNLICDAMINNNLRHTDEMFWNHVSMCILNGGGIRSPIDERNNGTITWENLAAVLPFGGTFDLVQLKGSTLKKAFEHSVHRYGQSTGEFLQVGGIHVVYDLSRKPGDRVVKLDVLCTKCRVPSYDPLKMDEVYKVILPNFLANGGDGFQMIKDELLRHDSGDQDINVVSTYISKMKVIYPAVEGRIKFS
The experiment in a line: SPR, bivalent.

A further experiment deals with T7, CD73 K180A (human, UniProt P21589).
T7 chain: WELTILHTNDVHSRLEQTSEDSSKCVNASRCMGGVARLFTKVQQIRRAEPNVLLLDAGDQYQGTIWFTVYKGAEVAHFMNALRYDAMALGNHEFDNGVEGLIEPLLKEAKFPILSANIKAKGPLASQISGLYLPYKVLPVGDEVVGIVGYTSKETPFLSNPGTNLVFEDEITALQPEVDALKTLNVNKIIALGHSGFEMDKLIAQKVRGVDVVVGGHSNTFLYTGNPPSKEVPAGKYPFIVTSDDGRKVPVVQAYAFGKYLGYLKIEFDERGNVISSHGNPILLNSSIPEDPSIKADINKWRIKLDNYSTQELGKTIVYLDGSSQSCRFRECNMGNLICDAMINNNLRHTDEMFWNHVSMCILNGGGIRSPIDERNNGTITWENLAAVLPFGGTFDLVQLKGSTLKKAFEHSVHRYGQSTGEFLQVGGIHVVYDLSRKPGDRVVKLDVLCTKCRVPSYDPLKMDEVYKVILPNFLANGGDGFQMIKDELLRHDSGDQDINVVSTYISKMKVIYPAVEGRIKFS
As to the kind of experiment: SPR, bivalent.

A further experiment deals with T8, CD73 V144K+K180A (human, UniProt P21589).
T8 chain: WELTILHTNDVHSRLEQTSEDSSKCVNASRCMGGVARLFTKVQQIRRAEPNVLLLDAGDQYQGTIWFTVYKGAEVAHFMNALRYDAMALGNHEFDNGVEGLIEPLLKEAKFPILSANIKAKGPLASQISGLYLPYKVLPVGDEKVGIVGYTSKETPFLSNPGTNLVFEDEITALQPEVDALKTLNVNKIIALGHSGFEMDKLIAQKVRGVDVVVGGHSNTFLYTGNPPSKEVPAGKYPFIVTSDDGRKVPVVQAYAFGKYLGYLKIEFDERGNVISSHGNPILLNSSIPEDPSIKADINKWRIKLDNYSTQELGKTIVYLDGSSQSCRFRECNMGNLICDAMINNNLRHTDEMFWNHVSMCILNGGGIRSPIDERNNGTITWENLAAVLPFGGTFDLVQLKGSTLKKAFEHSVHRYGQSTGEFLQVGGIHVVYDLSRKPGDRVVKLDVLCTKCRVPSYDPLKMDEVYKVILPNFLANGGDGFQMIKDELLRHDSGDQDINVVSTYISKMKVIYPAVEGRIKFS
As to the kind of experiment: SPR, bivalent.

For experiment [5], the target named is T2, human CD73 ECD. The experiment in a line: SPR.
In a further experiment the target is T9, CD73 K180A+N185G (human, UniProt P21589).
T9 chain: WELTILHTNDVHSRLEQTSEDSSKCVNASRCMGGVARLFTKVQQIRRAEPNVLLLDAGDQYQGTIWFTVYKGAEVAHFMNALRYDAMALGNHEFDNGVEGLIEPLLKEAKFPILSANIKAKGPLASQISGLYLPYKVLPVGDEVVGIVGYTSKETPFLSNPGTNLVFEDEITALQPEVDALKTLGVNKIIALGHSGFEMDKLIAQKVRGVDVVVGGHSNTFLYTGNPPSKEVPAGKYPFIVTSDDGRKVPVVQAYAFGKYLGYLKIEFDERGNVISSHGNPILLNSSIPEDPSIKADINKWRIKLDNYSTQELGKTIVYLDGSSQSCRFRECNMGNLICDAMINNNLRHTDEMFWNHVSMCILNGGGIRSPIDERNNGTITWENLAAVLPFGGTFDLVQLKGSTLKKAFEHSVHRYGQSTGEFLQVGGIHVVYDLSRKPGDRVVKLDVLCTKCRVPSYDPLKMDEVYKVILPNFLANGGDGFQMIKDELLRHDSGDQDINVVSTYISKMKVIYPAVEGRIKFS
The experiment in a line: SPR, bivalent.

In experiment [6] the target is T3, murine CD73 ECD. As to the kind of experiment: SPR.
Experiment [7] concerns the target T10, human CD73 on MDA-MB-231 cells (human, UniProt P21589).
T10 chain: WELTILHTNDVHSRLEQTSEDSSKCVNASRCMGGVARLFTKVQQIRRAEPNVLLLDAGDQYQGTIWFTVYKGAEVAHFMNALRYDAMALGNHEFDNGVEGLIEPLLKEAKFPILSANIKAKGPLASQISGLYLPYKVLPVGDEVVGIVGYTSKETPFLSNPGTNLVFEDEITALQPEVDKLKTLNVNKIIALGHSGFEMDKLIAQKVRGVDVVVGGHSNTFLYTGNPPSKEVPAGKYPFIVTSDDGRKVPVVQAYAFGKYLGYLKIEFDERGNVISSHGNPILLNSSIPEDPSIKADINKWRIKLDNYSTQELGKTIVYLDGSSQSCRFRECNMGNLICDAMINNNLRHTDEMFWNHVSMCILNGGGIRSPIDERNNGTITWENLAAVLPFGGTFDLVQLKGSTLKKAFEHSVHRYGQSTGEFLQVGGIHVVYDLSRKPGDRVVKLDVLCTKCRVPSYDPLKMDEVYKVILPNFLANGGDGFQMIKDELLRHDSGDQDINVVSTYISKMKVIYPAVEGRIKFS
As to the kind of experiment: FACS.

The target in experiment [8] is T10, human CD73 on MDA-MB-231 cells. The experiment in a line: FACS.
Experiment [9] deals with T2, human CD73 ECD. As to the kind of experiment: SPR.
The target of experiment [10] is T2, human CD73 ECD.

B1: MEDI9447 (73combo3, clone 10.3) (antibody, V domains shown)
VH: EVQLLESGGGLVQPGGSLRLSCAASGFTFSSYAYSWVRQAPGKGLEWVSAISGSGGRTYYADSVKGRFTISRDNSKNTLYLQMNSLRAEDTAVYYCARLGYGRVDEWGRGTLVTVSS
VL: QSVLTQPPSASGTPGQRVTISCSGSLSNIGRNPVNWYQQLPGTAPKLLIYLDNLRLSGVPDRFSGSKSGTSASLAISGLQSEDEADYYCATWDDSHPGWTFGGGTKLTVL
On to B1, for which the Kd stood at 0.113 nM with murine CD73 on 4T1 cells [1]; 0.0042 nM with human CD73 ECD [2]; 0.113 nM with murine CD73 on 4T1 cells [3]; 0.0009 nM with murine CD73 ECD [4]; 0.0269 nM with CD73 N185G; 0.0814 nM with CD73 V144K. Besides, the Kd with CD73 K180A turned out to be 0.0435 nM; in the experiment with CD73 V144K+K180A, 2.68 nM; in the experiment with human CD73 ECD [5], 0.004 nM; with murine CD73 ECD [6] it was 0.001 nM; in experiment [7] it was 0.154 nM; in experiment [8], 0.154 nM. The Kd with human CD73 ECD [9] was determined as 0.0041 nM. Also, the binding result with CD73 V144K+N185G and with CD73 K180A+N185G was “no binding” throughout.

B2: MEDI9447 Fab (antibody, V domains shown)
VH: EVQLLESGGGLVQPGGSLRLSCAASGFTFSSYAYSWVRQAPGKGLEWVSAISGSGGRTYYADSVKGRFTISRDNSKNTLYLQMNSLRAEDTAVYYCARLGYGRVDEWGRGTLVTVSS
VL: QSVLTQPPSASGTPGQRVTISCSGSLSNIGRNPVNWYQQLPGTAPKLLIYLDNLRLSGVPDRFSGSKSGTSASLAISGLQSEDEADYYCATWDDSHPGWTFGGGTKLTVL
As to B2, the Kd with human CD73 ECD [10] worked out at 0.327 nM.
